Tested on: SNAPtide (FITC/DABCYL), List Biological Laboratories product #521

**Q.** Which “Km, non-bead based assay (free BoNT/A), SNAPtide conversion” value does the source give for BoNT/A complex here?
**A.** The value was “typical Km=0.7 µM”.

**Q.** What about the “fold change of Km, immobilized against free enzyme” value of the same substance?
**A.** The value was 3.2-fold lower.

From US20130065259A1
